The values below come from the supplement of paper PMC7125110.

± gives the standard error. Variants at the floor of the assay were thinned out.

To fix the notation:
B1: glmS ribozyme (parent)
chain: AUAAAAGCGCCAGAACUACAGAAAUGUAGUUGACGAGGAGGAGGUUUAUCGAAUUUUCGGCGGAUGCCUCCAAA

In one data set the parent is B1. Nature of the data set: self-cleavage kobs at 2500 uM GlcN6P; higher = faster cleavage; RNA array. The settings on record: with glucosamine-6-phosphate. An outline of the steps: (§1)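 Glucosamine-6-phosphate (40 μM to 10 mM) in HEPES/KCl/Mg(OAc)2 buffer was flowed over sequenced MiSeq chips, and tiles were imaged over ~14 h. Barcoded ribozyme variants there had been transcribed in situ by E. coli RNA polymerase and were tracked through a hybridised Cy3 probe at 37 °C. One- or two-exponential decay fits to per-tile medians, normalised to baseline and to non-cleaving reference variants, gave kobs. kcat and KM came from weighted Michaelis–Menten fits across concentrations.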
AUAAAAGCGCCAGAACUACAGAAAUGUAGCUGACGAGGAGGAGGGUUAUCGAAUUUUCGGCGGAUGCCUUCAAA [U30C U45G C70U]: the “self-cleavage kobs at 2500 uM GlcN6P” value worked out at 7.88e-05 ± 1.9e-05 s⁻¹. On the same count and under the same terms, next, AUAAAAGCGCCAGACCUACAGAAAUGUAGUUGACGAGGUGGAGGUUUAAUGGCUUUUCGGCGGAUGCCUCCAAA [A15C A39U U49A C50U A52G A53C]: under 1e-05 s⁻¹; AUAAAAGCGUCAGAACUACAGAAAUGUAGUUGACGAGGAGGAGGUUGAUCGUAUUUUCGGCGGAUGCCACCAAA [C10U U47G A52U U69A]: 7.36e-05 ± 3.5e-05 s⁻¹; AUAAAACCGCCAGAACUACAGAAAUGUAGUUGACGAGGAGGAGGUUUAUCGAGUUUUCGGCGGAUGCCUACAAA [G7C A53G C70A]: under 1e-05 s⁻¹. The same measure, in the same setting: the figure for AUAAAAGCGCCAGAACUACAGAAAUGUAGUUGACGAGGACGAGAUUUAUCGAAAUUUCGGAGGGUGCCUCCAAA [G40C G44A U54A C61A A64G] is under 1e-05 s⁻¹; for AUAAAAGCGCAAGAACUACAGAAAUGUAGUUGACGAGGAGGAGGUUUAUCGAACUUUAGGCGGAUCCCUCCAAA [C11A U54C C58A G66C] it is under 1e-05 s⁻¹; for AUAAAAGCGCCUGAACUACAGAAAUGUAGUUGAUGAGGAGGAGGUUUAUCGAAUUUUCGGCGGAUGCCUCUAAA [A12U C34U C71U] it is under 1e-05 s⁻¹. As for AUAAAAGCGCAAGAACUACAGAAAUGUAGUUGACGAGGAGGAGGUUUAUCGAAAUAUCUGCGGAUGCCUCCAAA [C11A U54A U56A G59U], the “self-cleavage kobs at 2500 uM GlcN6P” value came out at 0.00154 ± 0.00068 s⁻¹. Same read-out and setting: next, AUAAAAGCGCCAGAACUACAGAAAUGUAGUUGACCAGGAGAAGAUUUAUCGAAUUUUCGGCGGAUACCUCCAAA [G35C G41A G44A G66A]: under 1e-05 s⁻¹; AUAAAAACACCAGAACUACAGAAAUGUAGUUGACGAGAAGGAGGUUUAUCGAAUUUUCGGCGGAGGCCUCCAAA [G7A G9A G38A U65G]: under 1e-05 s⁻¹; AUAAAAGAGCCAGAACUACAGAAAUGUAGUUUACGAGGAGGAGGUUUCUCGAAUUUUCGGCGGAUGCCUCCAAA [C8A G32U A48C]: under 1e-05 s⁻¹. On the same count and under the same terms, the figure for AUAAAGGCGCCAGAACUACAGAAAUGUAGUUGACGAGGAGGAUAUUUUUCGAAUUUUCGGCGAAUGCCUCCAAA [A6G G43U G44A A48U G63A] is under 1e-05 s⁻¹.

AUAAAAGCACCAGGUCUACAGAAAUGUAGUUGACGAGGAGGAGGUUUAUCGAAUAUUCGGCGGAUGCCUCCAAA [G9A A14G A15U U55A]: the “self-cleavage kobs at 2500 uM GlcN6P” value came to 7.2e-05 ± 1.6e-05 s⁻¹. The same measure, in the same setting: next, AUAAAAGCGCCUGAACUACAGAAAUGUAGUUGUCGAGGAGGGGGUUUAUCCAAUAUUCGGCGGAUGCCUCGAAA [A12U A33U A42G G51C U55A C71G]: under 1e-05 s⁻¹; AUAAAAGCGCCAGAACUACAGAAAUGUAGUUGACGAGGAGGAGGGUUAUCGAAUUUGCGGCGGAUGCAUACAAA [U45G U57G C68A C70A]: under 1e-05 s⁻¹. Same read-out and setting: next, AUAAAAGCUCCAGAACUACAGAAAUGUAGUUGACGAGGAGGAGGUUUAUAUAAUUUUCGGCGGAUGCGUCCAAA [G9U C50A G51U C68G]: 0.00198 ± 0.00067 s⁻¹; AUAAAAGCGCCAGAACUACAGAAAUGUAGUUUACGAGCACGAGGUUUAUCGAAUUUCCGGCGGAUGACUCCAAA [G32U G38C G40C U57C C67A]: under 1e-05 s⁻¹; AUAAAAGCGCCAGCACUACAGAAAUGUAGUUGACGUGGAGGAGGUUUAUCGAAUUUUCUGCGGAUGCCUCCAAA [A14C A36U G59U]: under 1e-05 s⁻¹. On the same count and under the same terms, next, AUAAAAGCGCCAGAAUUACAGAAAUGUAGUCGACGAGGAGGAGGUCUAUCGAAUUUUCGGCGGAUGCCUUCAAA [C16U U31C U46C C70U]: 0.000342 ± 0.00015 s⁻¹.

Regarding AUAAAAGCGCCAGAACUACAGAAAUGUAAAUGACGAGGAGGAGGUUUAUCGAGUUUUCGGCGGAGGCCUCCAAA [G29A U30A A53G U65G], the “self-cleavage kobs at 2500 uM GlcN6P” value worked out at 6.03e-05 ± 1.7e-05 s⁻¹. Regarding AUAAAAGCGCCAGAACUACAGAAAUGUAGUGUACGAGGAGGAGGUUUAUCGAAUUUUUGGCGGAUGCCUCCAAA [U31G G32U C58U], the “self-cleavage kobs at 2500 uM GlcN6P” value worked out at 8.74e-05 ± 2.9e-05 s⁻¹. On the same count and under the same terms, the figure for AUAAAAGCGCCAGAGCUACAGAAAUGUAGUUGAAGACGAGGAGGUUUAUCGAAUUUUCGGCGGAUGCCUCCAAA [A15G C34A G37C] is under 1e-05 s⁻¹; for AUAAAAGCGCCAGAAAUACAGAAAUGUAGUUGACGCGGAGGAGGUUUAACGAAUUUUCGGCGGAGGCCUCCAAA [C16A A36C U49A U65G] it is under 1e-05 s⁻¹. The same measure, in the same setting: next, AUAAAAGCGCCGGAACUACAGAAAUGUAGUUGGCGAGGAGGAGCUUUAUCGAAUUUUCGGCGGAUGCCUCCAAA [A12G A33G G44C]: under 1e-05 s⁻¹; AUAAAAGCGCUAGGACUACAGAAAUGUAGUUGACGAGGAGGAGGUUUAUCGAAUUUUCGGCGGAUGCCUGCAAA [C11U A14G C70G]: 0.000303 ± 5e-05 s⁻¹; AUAAAAGCGCCAGUACUACAGAAAUGUAGUUUACGAGGAUGAGGUUUAUCGAAUUUUCGGCGGAUGCCUCCAAA [A14U G32U G40U]: 3.98e-05 ± 1.3e-05 s⁻¹. On the same count and under the same terms, next, AUAAAAGCGCCAGAACUACAGAAAUGUAGUUGACGUGGAGGAGGUUUAUCGAAUUUUCGGCGGAUGCCGCAAAA [A36U U69G C71A]: 0.000556 ± 0.00021 s⁻¹; AUAAAACCGCCAGAACUACAGAAAUGUAGUUGAAGAGGAGGAGGUGUAUCGAAUUUUCGGCGCAUGCCUCCAAA [G7C C34A U46G G63C]: under 1e-05 s⁻¹; AUAAAGGCGCCAGAACUACAGAAAUGUAGUUGACGAGCAGUAGGUUUAUCGAAUUUUCGGCGGAUGCUUCCAAA [A6G G38C G41U C68U]: under 1e-05 s⁻¹. For the variant AUAAAAGCGCCACAACUACAGAAAUGUACUUGACGAGUAGGAGGUUUAUCGAAUUUUCGGCGGAUGGCUCCAAA [G13C G29C G38U C67G], the “self-cleavage kobs at 2500 uM GlcN6P” value is 0.000596 ± 0.0002 s⁻¹.

Turning to AUAAAAGCGCUAGAACUACAGAAAUGUAGUUGACGAGGAGGAGGUUUAUCGAACUUUCGGCGGAUGACUCCAAA [C11U U54C C67A], the “self-cleavage kobs at 2500 uM GlcN6P” value came out at 0.00025 ± 8e-05 s⁻¹. On the same count and under the same terms, the figure for AUAAAAGCGCCAGAACUACAGAAAUGUACUUGACGAGGAGGAGGUUUAGCGAAUUUUCGGUGGAUGCCUCCAAA [G29C U49G C61U] is under 1e-05 s⁻¹. For the variant AUAAAAGCGCCAGAACUACAGAAAUGUAGUUGACGAGGAGGAGGUUUAUCGAAUUUUCGGCGGAUGAUUUCAAA [C67A C68U C70U], the “self-cleavage kobs at 2500 uM GlcN6P” value came out at 2.78e-05 ± 1.3e-05 s⁻¹.

A further data set covers variants of B1. Nature of the data set: self-cleavage kobs at 10000 uM GlcN6P; higher = faster cleavage; RNA array. The following applies: with glucosamine-6-phosphate. An outline of the steps: as §1
AUAAAAACACCAGAACUACAGAAAUGUAGUUGACGAGAAGGAGGUUUAUCGAAUUUUCGGCGGAGGCCUCCAAA [G7A G9A G38A U65G]: the “self-cleavage kobs at 10000 uM GlcN6P” value is under 1e-05 s⁻¹. As to AUAAAAGCGCUAGGACUACAGAAAUGUAGUUGACGAGGAGGAGGUUUAUCGAAUUUUCGGCGGAUGCCUGCAAA [C11U A14G C70G], the “self-cleavage kobs at 10000 uM GlcN6P” value is 0.000165 ± 3.1e-05 s⁻¹. The same measure, in the same setting: next, AUAAAAGCGCCAGAACUACAGAAAUGUAGUUGACGUGGAGGAGGUUUAUCGAAUUUUCGGCGGAUGCCGCAAAA [A36U U69G C71A]: 5.84e-05 ± 1.8e-05 s⁻¹; AUAAAAGCGCCAGAACUACAGAAAUGUAGUUGACGAGGAGGAGGUUUAUCGAAUUUUCGGCGGAUGAUUUCAAA [C67A C68U C70U]: 6.71e-05 ± 1.9e-05 s⁻¹.
